Experimental data from paper PMC6996395 (FASEB bioAdvances, 2019).

Biological target: Split-CFTR front half (N-term-TMD1-NBD1; aa 1-634) (UniProt P13569 1-634)
Assay: proximity ligation

Sequence of Split-CFTR front half (N-term-TMD1-NBD1; aa 1-634) (P13569 1-634): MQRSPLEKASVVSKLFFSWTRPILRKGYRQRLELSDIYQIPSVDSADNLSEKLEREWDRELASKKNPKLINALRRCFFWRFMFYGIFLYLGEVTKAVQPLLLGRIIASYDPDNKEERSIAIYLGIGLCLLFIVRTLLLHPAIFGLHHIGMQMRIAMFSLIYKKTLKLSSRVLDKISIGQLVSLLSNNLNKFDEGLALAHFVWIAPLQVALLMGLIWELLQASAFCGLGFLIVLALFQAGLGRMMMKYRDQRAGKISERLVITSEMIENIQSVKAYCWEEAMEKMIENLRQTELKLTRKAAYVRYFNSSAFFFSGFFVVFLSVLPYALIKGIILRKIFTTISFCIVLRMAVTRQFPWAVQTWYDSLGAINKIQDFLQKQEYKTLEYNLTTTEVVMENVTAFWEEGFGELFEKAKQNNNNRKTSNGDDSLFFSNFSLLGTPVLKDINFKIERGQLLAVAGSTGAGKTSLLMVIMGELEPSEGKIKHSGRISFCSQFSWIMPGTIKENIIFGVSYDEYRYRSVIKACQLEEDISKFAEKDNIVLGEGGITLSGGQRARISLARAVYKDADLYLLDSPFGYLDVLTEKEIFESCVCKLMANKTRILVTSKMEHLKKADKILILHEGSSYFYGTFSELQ

B1: CFTR R-region R-6CA (S641A/T682A/S707A/S790A/T791A/S809A; aa 635-836) (domain or fragment, UniProt P13569 635-836, looked up)
chain: NLQPDFASKLMGCDSFDQFSAERRNSILTETLHRFSLEGDAPVSWTEAKKQSFKQTGEFGEKRKNSILNPINAIRKFSIVQKTPLQMNGIEEDSDEPLERRLSLVPDSEQGEAILPRISVISTGPTLQARRRQSVLNLMTHSVNQGQNIHRKTTAAARKVSLAPQANLTELDIYARRLSQETGLEISEEINEEDLKECFFDD
CTCF of PLA signal (after PKA stimulation): 1.4
CTCF of PLA signal (after PKC + PKA stimulation): 5.28
CTCF of PLA signal (after PKC stimulation): 5.54
CTCF of PLA signal (basal): 0.33
